Results reported in PMC7998035, “Restoration of the healing microenvironment in diabetic wounds with matrix-binding IL-1 receptor antagonist” (Communications Biology, 2021).

B1: human fibrinogen (complex)
chain 1: ADSGEGDFLAEGGGVRGPRVVERHQSACKDSDWPFCSDEDWNYKCPSGCRMKGLIDEVNQDFTNRINKLKNSLFEYQKNNKDSHSLTTNIMEILRGDFSSANNRDNTYNRVSEDLRSRIEVLKRKVIEKVQHIQLLQKNVRAQLVDMKRLEVDIDIKIRSCRGSCSRALAREVDLKDYEDQQKQLEQVIAKDLLPSRDRQHLPLIKMKPVPDLVPGNFKSQLQKVPPEWKALTDMPQMRMELERPGGNEITRGGSTSYGTGSETESPRNPSSAGSWNSGSSGPGSTGNRNPGSSGTGGTATWKPGSSGPGSTGSWNSGSSGTGSTGNQNPGSPRPGSTGTWNPGSSERGSAGHWTSESSVSGSTGQWHSESGSFRPDSPGSGNARPNNPDWGTFEEVSGNVSPGTRREYHTEKLVTSKGDKELRTGKEKVTSGSTTTTRRSCSKTVTKTVIGPDGHKEVTKEVVTSEDGSDCPEAMDLGTLSGIGTLDGFRHRHPDEAAFFDTASTGKTFPGFFSPMLGEFVSETESRGSESGIFTNTKESSSHHPGIAEFPSRGKSSSYSKQFTSSTSYNRGDSTFESKSYKMADEAGSEADHEGTHSTKRGHAKSRPV
chain 2: QGVNDNEEGFFSARGHRPLDKKREEAPSLRPAPPPISGGGYRARPAKAAATQKKVERKAPDAGGCLHADPDLGVLCPTGCQLQEALLQQERPIRNSVDELNNNVEAVSQTSSSSFQYMYLLKDLWQKRQKQVKDNENVVNEYSSELEKHQLYIDETVNSNIPTNLRVLRSILENLRSKIQKLESDVSAQMEYCRTPCTVSCNIPVVSGKECEEIIRKGGETSEMYLIQPDSSVKPYRVYCDMNTENGGWTVIQNRQDGSVDFGRKWDPYKQGFGNVATNTDGKNYCGLPGEYWLGNDKISQLTRMGPTELLIEMEDWKGDKVKAHYGGFTVQNEANKYQISVNKYRGTAGNALMDGASQLMGENRTMTIHNGMFFSTYDRDNDGWLTSDPRKQCSKEDGGGWWYNRCHAANPNGRYYWGGQYTWDMAKHGTDDGVVWMNWKGSWYSMRKMSMKIRPFFPQQ
chain 3: YVATRDNCCILDERFGSYCPTTCGIADFLSTYQTKVDKDLQSLEDILHQVENKTSEVKQLIKAIQLTYNPDESSKPNMIDAATLKSRKMLEEIMKYEASILTHDSSIRYLQEIYNSNNQKIVNLKEKVAQLEAQCQEPCKDTVQIHDITGKDCQDIANKGAKQSGLYFIKPLKANQQFLVYCEIDGSGNGWTVFQKRLDGSVDFKKNWIQYKEGFGHLSPTGTTEFWLGNEKIHLISTQSAIPYALRVELEDWNGRTSTADYAMFKVGPEADKYRLTYAYFAGGDAGDAFDGFDFGDDPSDKFFTSHNGMQFSTWDNDNDKFEGNCAEQDGSGWWMNKCHAGHLNGVYYQGGTYSKASTPNGYDNGIIWATWKTRWYSMKKTTMKIIPFNRLTIGEGQQHHLGGAKQAGDV
modifications: Plasma-derived intact fibrinogen (Enzyme Research Laboratories), fibrinopeptides A and B retained; disulfide-linked (AαBβγ)2 hexamer, N-glycosylated, Ca2+-bound. By convention, the major circulating …
B2: murine wild-type IL-1 receptor antagonist (IL-1Ra) (natural protein, mouse, UniProt P25085 27-178, looked up)
chain: RPSGKRPCKMQAFRIWDTNQKTFYLRNNQLIAGYLQGPNIKLEEKIDMVPIDLHSVFLGIHGGKLCLSCAKSGDDIKLQLEEVNITDLSKNKEEDKRFTFIRSEKGPTTSFESAACPGWFLCTTLEADRPVSLTNTPEEPLIVTKFYFQEDQ
notes: interleukin-1 receptor antagonist protein, mouse; also called interleukin-1 receptor antagonist
B3: murine wild-type platelet-derived growth factor-BB (PDGF-BB) (ligand, mouse, UniProt P31240 82-190, looked up)
chain: SLGSLAAAEPAVIAECKTRTEVFQISRNLIDRTNANFLVWPPCVEVQRCSGCCNNRNVQCRASQVQMRPVQVRKIEIVRKKPIFKKATVTLEDHLACKCETIVTPRPVT
notes: platelet-derived growth factor subunit B, mouse; PDGF-BB occurs as a dimer; source: bought: Peprotech

How the values were obtained:
Assay in all cases: ELISA; ECM protein coated on the plate (100 nM in PBS, 1 h, 37 °C), blocked with 1% BSA in PBS-T; IL-1Ra or PDGF-BB variants at 0 to 100 nM in PBS-T with 0.1% BSA, 1 h, room temperature; bound protein detected with biotinylated antibodies (DuoSet); specific binding fitted with a one site-specific binding model; means of 3 independent experiments
Settings in all cases: both partners purified
IL-1Ra/PlGF123-141 = target: T1, IL-1Ra/PlGF123-141
T1 construct: interleukin-1 receptor antagonist; source: E. coli BL21 (DE3), pET-22b, soluble fraction purified (chelating SFF(Ni) column)
T1 sequence (P18510 whole entry): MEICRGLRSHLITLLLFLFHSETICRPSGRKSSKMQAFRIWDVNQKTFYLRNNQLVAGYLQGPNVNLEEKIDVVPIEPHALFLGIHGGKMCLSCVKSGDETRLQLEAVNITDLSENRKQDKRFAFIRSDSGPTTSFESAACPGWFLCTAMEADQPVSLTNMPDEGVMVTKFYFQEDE

PDGF-BB/PlGF123-141 = target: T2, PDGF-BB/PlGF123-141
T2 construct: platelet-derived growth factor subunit B; also called engineered PDGF-BB
T2 sequence (P02671 36-866): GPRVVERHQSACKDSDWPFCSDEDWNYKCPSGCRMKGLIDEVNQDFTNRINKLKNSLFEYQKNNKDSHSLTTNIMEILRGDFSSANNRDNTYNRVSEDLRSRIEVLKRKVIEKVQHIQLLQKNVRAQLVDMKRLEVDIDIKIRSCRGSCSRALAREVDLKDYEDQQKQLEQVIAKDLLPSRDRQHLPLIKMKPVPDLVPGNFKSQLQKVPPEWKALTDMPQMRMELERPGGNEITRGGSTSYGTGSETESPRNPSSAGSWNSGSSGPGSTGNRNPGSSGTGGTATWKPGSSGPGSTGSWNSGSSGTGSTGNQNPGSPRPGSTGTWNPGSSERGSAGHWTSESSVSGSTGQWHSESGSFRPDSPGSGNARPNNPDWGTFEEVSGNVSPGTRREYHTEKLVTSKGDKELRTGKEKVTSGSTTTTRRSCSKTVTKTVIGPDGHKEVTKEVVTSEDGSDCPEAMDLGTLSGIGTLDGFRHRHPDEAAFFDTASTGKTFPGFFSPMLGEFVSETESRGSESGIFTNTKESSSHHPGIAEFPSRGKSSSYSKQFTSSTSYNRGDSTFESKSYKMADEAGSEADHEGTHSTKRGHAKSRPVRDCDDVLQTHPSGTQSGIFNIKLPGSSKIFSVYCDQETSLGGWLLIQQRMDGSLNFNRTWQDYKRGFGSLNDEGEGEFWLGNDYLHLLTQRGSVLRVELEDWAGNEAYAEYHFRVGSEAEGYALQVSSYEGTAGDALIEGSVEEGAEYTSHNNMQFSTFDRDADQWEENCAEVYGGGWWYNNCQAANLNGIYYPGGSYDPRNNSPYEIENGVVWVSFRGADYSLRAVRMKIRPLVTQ

human vitronectin = target: T3, human vitronectin (human, UniProt P04004 20-478)
T3 construct: vitronectin, human; also called Vn; source: bought: Peprotech
T3 sequence (P04004 20-478): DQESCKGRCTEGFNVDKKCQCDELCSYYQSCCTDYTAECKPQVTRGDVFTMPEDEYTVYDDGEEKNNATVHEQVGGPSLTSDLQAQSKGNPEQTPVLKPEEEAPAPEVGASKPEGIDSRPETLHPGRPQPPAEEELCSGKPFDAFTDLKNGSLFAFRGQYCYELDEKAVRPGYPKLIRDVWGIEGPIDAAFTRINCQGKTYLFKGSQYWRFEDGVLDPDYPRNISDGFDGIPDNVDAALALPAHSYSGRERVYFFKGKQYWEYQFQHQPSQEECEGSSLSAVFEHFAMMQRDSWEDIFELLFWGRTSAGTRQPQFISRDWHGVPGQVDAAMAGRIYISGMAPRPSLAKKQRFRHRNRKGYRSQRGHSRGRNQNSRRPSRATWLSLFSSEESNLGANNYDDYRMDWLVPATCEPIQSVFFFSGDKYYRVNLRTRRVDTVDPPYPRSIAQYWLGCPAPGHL

human tenascin C = target: T4, human tenascin C (human, UniProt P24821 23-2201)
T4 construct: tenascin C, human; also called TnC; source: bought: R&D Systems

human plasma fibronectin = human plasma fibronectin (human)
Sequence of human plasma fibronectin (human) (P02751 other isoform, or with tags, fused parts or gaps): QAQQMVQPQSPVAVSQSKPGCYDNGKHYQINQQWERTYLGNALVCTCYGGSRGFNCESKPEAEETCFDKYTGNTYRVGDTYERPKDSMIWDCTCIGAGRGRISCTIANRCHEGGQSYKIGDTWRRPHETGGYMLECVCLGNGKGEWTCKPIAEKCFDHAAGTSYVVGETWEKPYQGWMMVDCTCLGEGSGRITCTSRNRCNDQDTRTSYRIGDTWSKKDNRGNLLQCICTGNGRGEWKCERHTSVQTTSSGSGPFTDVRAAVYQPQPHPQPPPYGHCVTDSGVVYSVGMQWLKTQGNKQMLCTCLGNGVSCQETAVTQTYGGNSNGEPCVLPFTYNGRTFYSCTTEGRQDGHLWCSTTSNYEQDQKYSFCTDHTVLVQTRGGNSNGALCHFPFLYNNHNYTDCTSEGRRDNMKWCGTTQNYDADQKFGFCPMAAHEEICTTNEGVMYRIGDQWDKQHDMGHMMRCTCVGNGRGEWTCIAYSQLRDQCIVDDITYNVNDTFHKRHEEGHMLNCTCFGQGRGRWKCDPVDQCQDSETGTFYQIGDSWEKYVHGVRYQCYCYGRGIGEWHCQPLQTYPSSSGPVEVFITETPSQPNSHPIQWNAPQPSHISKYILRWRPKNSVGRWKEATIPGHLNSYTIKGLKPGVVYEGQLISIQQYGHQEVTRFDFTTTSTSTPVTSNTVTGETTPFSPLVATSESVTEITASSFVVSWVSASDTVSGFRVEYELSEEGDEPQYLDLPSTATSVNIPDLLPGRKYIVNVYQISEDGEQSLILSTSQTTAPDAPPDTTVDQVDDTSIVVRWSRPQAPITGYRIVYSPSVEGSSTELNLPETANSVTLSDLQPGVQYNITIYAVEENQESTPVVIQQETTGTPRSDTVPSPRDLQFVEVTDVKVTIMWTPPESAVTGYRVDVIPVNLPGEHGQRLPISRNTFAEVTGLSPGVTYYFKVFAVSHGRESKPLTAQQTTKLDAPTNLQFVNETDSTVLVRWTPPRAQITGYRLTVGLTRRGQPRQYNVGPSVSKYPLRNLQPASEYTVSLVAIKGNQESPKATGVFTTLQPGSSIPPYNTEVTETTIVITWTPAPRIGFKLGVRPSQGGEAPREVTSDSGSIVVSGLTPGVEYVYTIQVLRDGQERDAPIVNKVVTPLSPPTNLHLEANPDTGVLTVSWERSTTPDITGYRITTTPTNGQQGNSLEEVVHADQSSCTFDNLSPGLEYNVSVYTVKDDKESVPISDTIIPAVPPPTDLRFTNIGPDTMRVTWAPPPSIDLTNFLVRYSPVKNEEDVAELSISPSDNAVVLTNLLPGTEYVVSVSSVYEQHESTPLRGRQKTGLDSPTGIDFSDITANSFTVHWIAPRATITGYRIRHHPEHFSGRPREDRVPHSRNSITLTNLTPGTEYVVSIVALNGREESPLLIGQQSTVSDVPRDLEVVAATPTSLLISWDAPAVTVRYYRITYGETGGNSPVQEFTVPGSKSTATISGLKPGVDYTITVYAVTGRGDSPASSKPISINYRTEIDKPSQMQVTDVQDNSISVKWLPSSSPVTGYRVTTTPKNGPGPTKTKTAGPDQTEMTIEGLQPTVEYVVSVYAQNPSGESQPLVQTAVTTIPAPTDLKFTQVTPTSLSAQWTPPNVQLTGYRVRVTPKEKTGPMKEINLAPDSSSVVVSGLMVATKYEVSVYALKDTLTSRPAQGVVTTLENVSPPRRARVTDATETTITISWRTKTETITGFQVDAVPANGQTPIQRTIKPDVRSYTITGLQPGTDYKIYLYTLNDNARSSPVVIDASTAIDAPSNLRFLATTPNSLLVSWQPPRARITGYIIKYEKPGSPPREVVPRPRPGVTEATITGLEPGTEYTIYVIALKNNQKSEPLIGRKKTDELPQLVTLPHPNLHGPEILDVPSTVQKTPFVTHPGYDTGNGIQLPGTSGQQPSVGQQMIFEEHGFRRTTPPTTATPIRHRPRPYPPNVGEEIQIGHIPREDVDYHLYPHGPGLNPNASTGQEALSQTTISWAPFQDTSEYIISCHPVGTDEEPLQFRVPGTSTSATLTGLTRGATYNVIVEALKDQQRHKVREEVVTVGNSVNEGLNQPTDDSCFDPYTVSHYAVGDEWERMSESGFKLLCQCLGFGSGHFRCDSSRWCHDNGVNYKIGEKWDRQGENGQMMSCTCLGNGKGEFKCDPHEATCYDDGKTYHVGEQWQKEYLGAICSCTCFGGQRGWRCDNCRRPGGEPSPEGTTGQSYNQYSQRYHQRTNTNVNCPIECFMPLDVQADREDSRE

human fibrinogen = target: B1
Sequence of human fibrinogen (P02671 36-866): as the sequence (P02671 36-866) above

Q: What does the source list for B1?
A: Kd (IL-1Ra/PlGF123-141): 43.5 nM; Kd (PDGF-BB/PlGF123-141): 16.7 nM

Q: Which Kd (human vitronectin) does the source give for B2 here?
A: 73.2 nM

Q: And the Kd (human tenascin C)?
A: 113 nM

Q: And the Kd (human plasma fibronectin)?
A: 129 nM

Q: And the Kd (human fibrinogen)?
A: 663 nM

Q: B3 was tested. Which Kd (human vitronectin) did it give?
A: 32.1 nM

Q: What about the Kd (human tenascin C) of the same binder?
A: 94.3 nM

Q: What about the Kd (human plasma fibronectin) of the same binder?
A: 67.5 nM

Q: What about the Kd (human fibrinogen) of the same binder?
A: 206 nM
